The text below walks through data of patent publication US10801027B2, “Inhibitors of SRSF1 to treat neurodegenerative disorders” (University of Sheffield, priority 2016, dated 2020).

In experiment [1] the test system is poly-Gly-Pro and poly-Gly-Ala DPRs. Description: Western blot of RAN-translated DPRs in N2A cells. Format: cell-based, mouse. To be noted: G4C2×38 or C4G2×39 constructs, 72 h. The procedure: Neuro-2a (ATCC) cells were cultured in Dulbecco's Modified Eagle Medium (Sigma) supplemented with 10% fetal bovine serum [FBS] (Gibco), 5 U/ml Penstrep (Lonza) and 5 mM sodium pyruvate. Cells were maintained in a […] incubator with 5% CO2. 75,000 Neuro-2a cells were split into each well of 24-well plates and transfected for 72 h with 500 ng pcDNA6.2-GW/EmGFP-Control miR RNAi (ThermoFisher) or pcDNA6.2-GW/EmGFP-mouse SRSF1 miR1+2 RNAi and 200 ng pcDNA 3.1/RAN-G4C2×38-sense or RAN-C4G2×39-antisense using 3 μg PEI/1 μg DNA and one tenth medium volume OptiMEM (ThermoFisher).
HEK cells were transfected for 72 h with 650 ng pcDNA6.2-GW/EmGFP-Control miRNA, pCDNA6.2-GW/EmGFP-human SRSF1 miR1+2 RNAi or LV-EmGFP-human SRSF1 miR1+2 RNAi constructs and 50 ng p3×FLAG/human-SRSF1 using 3.5 μg PEI/ml media and one tenth medium volume of OptiMEM. Neuro-2a cells were split into each well of 24-well plates (75,000 cells/well) and transfected for 72 h with 350 ng pcDNA6.2-GW/EmGFP-Control miR RNAi (ThermoFisher), pcDNA6.2-GW/EmGFP-mouse SRSF1 miR1+2 RNAi, p3×FLAG, p3×FLAG/SRSF1 (11-196), p3×FLAG/SRSF1 (11-196)-m2 or p3×FLAG/SRSF1 (11-196)-m4 and 350 ng pcDNA 3.1/RAN-G4C2×38-sense or RAN-C4G2×39-antisense using 3 μg PEI/1 μg DNA and one tenth medium volume OptiMEM.
Proteins were extracted from HEK or Neuro-2a cells 72 hours after transfection. […] Protein extracts were quantified using Bradford Reagent (BioRAD), resolved by SDS-PAGE, electroblotted onto nitrocellulose membrane and probed using the relevant primary antibody. […] (kindly received from Prof Stuart Pickering Brown) primary antibodies were detected with horseradish peroxidase (HRP)-conjugated rabbit secondary antibody [1:5000 dilution] […] (kindly provided from Prof Dieter Edbauer) primary antibodies were detected using HRP-conjugated mouse secondary antibody [1:5000 dilution] […] For dot blot analysis, 50 μg total protein extracts prepared in ice-cold lysis buffer were loaded onto a nitrocellulose membrane using a microfiltration apparatus (Biorad) and analysed by western immunoblotting as previously described.
A general note: A western blot detects proteins with antibodies after separation by electrophoresis.

Another experiment has as its system G4C2×38 transcripts. Description: Cytoplasmic fractionation and qRT-PCR of G4C2×38 transcripts in N2A cells. Format: cell-based, mouse. The protocol: Neuro-2a cells were split into each well of 6 well plates (2×10^6 cells/well) and transfected for 72 hours with 1 μg pcDNA6.2-GW/EmGFP-Control miR RNAi, pcDNA6.2-GW/EmGFP-mouse SRSF1 miR1+2 RNAi, p3×FLAG/SRSF1 (11-196), or p3×FLAG/SRSF1 (11-196)-m4 and 1 μg pcDNA 3.1/RAN-G4C2×38-sense or RAN-C4G2×39-antisense using 3 μg PEI/1 μg DNA and one tenth medium volume OptiMEM. iNeurons were cultured in 6-well plates and transduced with 5MOI human LV-SRSF1-RNAi lentivirus for 5 days.
Cytoplasmic fractionation was performed as follows. Cells were removed from the plate using DEPC PBS and pelleted by centrifugation at 800×g for 5 minutes. Cell pellets were quickly washed with hypotonic lysis buffer (10 mM HEPES pH 7.9, 1.5 mM MgCl2, 10 mM KCl, 0.5 mM DTT). Cell pellets were then lysed in hypotonic lysis buffer containing 0.16 U/μL Ribosafe RNase inhibitors (Bioline), 2 mM PMSF (Sigma) and […]™ Protease Inhibitor Cocktail tablets, EDTA free (Sigma) according to manufacturer's instructions. Cells were lysed gently using a cut P1000 tip ensuring no physical force was exerted on the cell pellet. For fly tissue, da-GAL4 was used to drive transgene expression in all tissues, and 10 third instar larvae were homogenised and lysed using the same buffer and a dounce homogenizer. The lysate then underwent differential centrifugation (1,500 g, 3 min, 4° C. then 3,500 g […], 8 min, 4° C. and then 17,000 g, 1 min, 4° C.) transferring the supernatant to a fresh tube after each centrifugation. The supernatant was then added to PureZOL (Biorad) to extract RNA. […]
Following RNA quantification, 2 μg RNA was converted to cDNA using BioScript™ Reverse Transcriptase (Bioline). qRT-PCR primers were designed using Primer-BLAST (NCBI) and validated using a 1 in 4 serial template dilution series (standard curve with R^2>0.97). qRT-PCR reactions were performed in duplicate for 3 independent biological repeats using the Brilliant III Ultra-Fast SYBR® Green QPCR Master Mix (Agilent Technologies) on a MX3000P QPCR system (Statagene). qRT-PCR data was analysed using MxPro (Stratagene) and GraphPad Prism (Version 6). […]
A general note: Quantitative PCR measures a nucleic acid by following its amplification.

B1: SRSF1-m4: quadruple SRSF1 point mutant aa11-196, dominant negative, does not interact with TAP/NXF1 (protein)
chain: AGNNDCRIYVGNLPPDIRTKDIEDVFYKYGAIRDIDLKNRRGGPPFAFVEFEDPRDAEDAVYGRDGYDYDGYRLRVEFPASGAGTGRGGGGGGGGGAPRGRYGPPSAASENRVVVSGLPPSGSWQDLKDHMREAGDVCYADVYRDGTGVVEFVRKEDMTYAVRKLDNTKFRSHEGETAYIRVKVDG
modifications: left off: small tags and cut ends
With B1, the “effect on RAN translation / production of sense and antisense DPRs” value in experiment [1] was “marked reduction”. In addition, in the experiment with G4C2×38 transcripts (G4C2×38, RNAi vs Ctrl-RNAi, SRSF1-m4 vs SRSF1), the “cytoplasmic repeat transcript levels normalized to total levels” value was “marked reduction”. In the experiment on G4C2×38 transcripts (normalized to U1 snRNA), the “cytoplasmic levels of G4C2×38 transcripts” value was “markedly reduced” and the “total levels of G4C2×38 transcripts” value is listed as “not significantly altered”.
